Data reported in patent publication US20040072743A1 (priority 2000, published 2004).

Key:
[1] = female, NMRI, mouse, in vivo
[2] = female, NMRI, mouse, in vivo, sc

Substance | oral bioavailability (AUC [p.o. adm]/AUC [i.v. adm])×100% [1] | subcutaneous bioavailability (AUC [s.c.adm]/AUC [i.v. adm])×100% [2]
H-KFFKFFKFFK-g.abu-PheGly-TTCTAACATTTA-NH2 [Compound VI] | 6% | 62%
H-KFFKFFKFFK-achc-b.Ala-TTCTAACATTTA-NH2 [Compound V] | 9% | 68%
H-KFFKFFKFFK-b.cypr-g.abu-ACTTTGTCGCCA-NH2 [Compound IV] | 24% | 78%
H-KFFKFFKFFK-pfPhe-cha-TTCTAACATTTA-NH2 [Compound VII] | 54% | 69%
